From US20240076371A1, “COMPOSITIONS AND METHODS FOR TREATING OSTEOARTHRITIS, RHEUMATOID ARTHRITIS, AND JOINT AND TENDON DISORDERS” (BOARD OF REGENTS, THE UNIVERSITY OF TEXAS SYSTEM, priority 2021, published 2024)
Each block holds one molecule with its values, some of them ahead of it.

Assays:
[1] = target: T1, Cx43 hemichannels in human synovial fibroblast SW982 cells (Homo sapiens, UniProt P17302); assay: EtBr dye uptake assay in IL1β-treated SW982 cells; assay type: cell-based
T1 construct: endogenous in cells; host or cells: SW982 (human synovial fibroblast), IL1β-treated
T1 sequence (P17302 whole entry): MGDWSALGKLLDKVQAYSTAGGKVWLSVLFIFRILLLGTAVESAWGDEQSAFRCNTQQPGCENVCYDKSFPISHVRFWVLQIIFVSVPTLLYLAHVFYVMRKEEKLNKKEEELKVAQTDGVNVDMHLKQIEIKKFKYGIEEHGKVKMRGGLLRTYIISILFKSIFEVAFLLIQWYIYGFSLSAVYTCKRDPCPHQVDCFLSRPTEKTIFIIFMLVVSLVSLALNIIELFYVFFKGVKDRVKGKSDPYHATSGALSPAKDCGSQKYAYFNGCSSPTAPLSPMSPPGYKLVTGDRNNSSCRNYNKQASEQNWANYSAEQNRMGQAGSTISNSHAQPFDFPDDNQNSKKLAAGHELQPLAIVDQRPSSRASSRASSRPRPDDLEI
Method: (§1) Dye uptake assay. Cells were incubated with a mixture of 0.1 mM ethidium bromide (EtBr, MW 394 Da) and 1 mg/ml FITC-dextran (MW 10 kDa) for 5 minutes. EtBr was used as a tracer to detect hemichannel activity, and FITC-dextran, which is too large to pass through hemichannels but is taken up by dying cells, was used as a negative control. Cells were then rinsed five times with PBS, followed by fixing with 2% paraformaldehyde for 10 minutes. At least six microphotographs of fluorescence fields were captured under a 20× fluorescent microscope (Keyence, BZ-X710, Osaka, Japan). For each image, the average intensity of EtBr fluorescence was measured and quantified from at least 30 random cells using ImageJ software (NIH, Bethesda, USA). […]
(§2) Anti-Cx43 hemichannel antibody (M1 antibody) blocked Cx43 hemichannel opening and inflammatory gene expression in RAW264.7 and SW982 cells. […] The activity of Cx43 hemichannels was determined using EtBr dye uptake assay. […] Next, MMP3/13, Cyclooxygenase 2 (COX2), ADAM metallopeptidase with thrombospondin type 1 motif 4 (Adamts4), and IL6 gene expression was determined with or without Cx43E2 antibody after LPS treatment of RAW264.7 cells (FIG. 18). […] In addition, MMP3/13, COX2, Adamts4/5, and Nitric Oxide Synthase 2 (NOS2) gene expression was evaluated in IL1β-treated SW982 cells (FIG. 19).

[2] = target: T2, Cx43 hemichannels in mouse macrophage RAW264.7 cells (Mus musculus, UniProt P23242); assay: EtBr dye uptake assay in LPS-treated RAW264.7 cells; assay type: cell-based
T2 construct: endogenous in cells; host or cells: RAW264.7 (mouse macrophage), LPS-treated
T2 sequence (P23242 whole entry): as the sequence (P17302 whole entry) above, with D124E, I164V, K243R, S251T, A253P, A257S, Q263P, N341S, S344A, L347V counted along it
Method: as §1, §2

[3] = target: T3, Connexin 43 (Cx43) hemichannel, mouse (mouse, UniProt P23242 2-382); assay: in vivo binding after i.p. injection; frozen knee sections stained with Alexa Fluor 594 anti-human IgG
T3 construct: whole, on cells; also called Cx43 HCs
T3 sequence (P23242 2-382): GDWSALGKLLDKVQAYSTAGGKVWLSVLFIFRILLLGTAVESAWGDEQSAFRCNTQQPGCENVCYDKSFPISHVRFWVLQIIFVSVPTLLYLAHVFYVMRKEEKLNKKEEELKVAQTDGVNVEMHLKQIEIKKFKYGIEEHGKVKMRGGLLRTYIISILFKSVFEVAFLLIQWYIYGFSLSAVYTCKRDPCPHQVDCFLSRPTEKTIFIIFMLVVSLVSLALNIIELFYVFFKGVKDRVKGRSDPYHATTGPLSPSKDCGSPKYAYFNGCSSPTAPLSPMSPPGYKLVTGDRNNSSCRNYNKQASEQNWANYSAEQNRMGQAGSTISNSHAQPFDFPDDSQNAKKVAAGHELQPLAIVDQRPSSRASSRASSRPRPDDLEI
Method: M1 antibody binds to synovium and inhibits hemichannel opening in OA. Due to the dense nature of cartilage and large size of antibodies, a widely held perception is that antibodies are unable to penetrate the cartilage matrix. To determine the antibody binding pattern in the knee joint region, M1 antibody (25 mg/kg) with human IgG epitope or saline was intraperitoneally (i.p.) injected at 30 mins after DMM surgery. As shown in the diagram (FIG. 8A), mice were euthanized and perfused before isolation of hindlimbs at one or two weeks after injection. Frozen tissue sections were prepared and immuno-labeled with Alexa Fluor 594-conjugated anti-human IgG secondary antibody. The signal was detectable at both one and two weeks after antibody administration, with the antibody binding site primarily localized in the synovium region (FIG. 8B). The synovium of joints comprises macrophage-like type A cells, which are responsible for phagocytosing synovial fluid, and fibroblast-like type B cells, which produce hyaluronic acid and mucin to nourish and mechanically protect, respectively, the underlying articular cartilage (Donahue H J, et al. Nature reviews Rheumatology. 2017; 14(1):42-51). Then the sections were immuno-labeled with the macrophage marker CD68, and the M1 antibody was co-localized with CD68 in the synovium region (FIG. 9). […]

[4] = test system: LPS-induced inflammatory gene expression in RAW264.7 cells; assay: qRT-PCR of LPS-induced inflammatory gene expression in RAW264.7 cells; assay type: cell-based, mouse; conditions: pre-incubated 30 min, 0.1 μg/ml LPS for 4 hrs
Method: Mouse macrophage RAW264.7 cells were pre-incubated with or without the Cx43E2 antibody for 30 min followed by incubation with 0.1 μg/ml LPS for 4 hrs. RNA extracts were prepared and subjected to qRT-PCR analysis for COX2, Adamts4, MMP3/13 and IL6 mRNA expression. *P<0.05, **P<0.01.
(§3) RNA isolation and real-time PCR. Total RNA was isolated from RAW264.7 and SW982 cells using TRI Reagent (Molecular Research Center, Cincinnati, USA) according to the manufacturer's instructions. After RNA quantification by Nanodrop 2000, cDNA was synthesized from 1 μg of total RNA using the high-capacity RNA-to-cDNA kit (Thermo Fisher Scientific, Waltham, USA). […]
as §2

[5] = test system: IL1β-induced inflammatory gene expression in SW982 cells; assay: qRT-PCR of IL1β-induced inflammatory gene expression in SW982 cells; assay type: cell-based, human; conditions: pre-incubated 30 min, 1 ng/ml IL1β for 14 hrs
Method: Human synovial fibroblast SW982 cells were pre-incubated with or without the Cx43E2 antibody for 30 min followed by incubation with 1 ng/ml IL1β for 14 hrs. RNA extracts were prepared and subjected to qRT-PCR analysis for COX2, Adamts4/5, MMP3/13 and NOS2 mRNA expression. *P<0.05, **P<0.01.
as §3, §2

- IL1β-induced increase of Cx43 hemichannel opening (EtBr dye uptake) ([1]; CBX 100 μM): abolished
- LPS-induced increase of Cx43 hemichannel opening (EtBr dye uptake) ([2]; CBX 100 μM): abolished
Molecule: CC1(C)[C@@H](OC(=O)CCC(=O)O)CC[C@]2(C)[C@H]3C(=O)C=C4[C@@H]5C[C@@](C)(C(=O)O)CC[C@]5(C)CC[C@@]4(C)[C@]3(C)CC[C@@H]12 [carbenoxolone, reference compound]

- binding result [3]: binds
B1: M1 antibody (anti-Cx43 hemichannel blocking antibody) (antibody, V domains shown)
VH: EVQLQQPGAELVKPGASVKLSCKASGYTFTSYYMYWVKQRPGQGLEWIGGINPSNGGTNFNEKFKNKATLTVDKSSSTAYMQLSSLTSEDSAVYYCTREGNPYYTMNYWGQGTSVTVSS
VL: DIVMTQSPSSLSVSAGEKVTMSCKSSQSLLNSGNQKTYLAWYQQKPGQPPKLLIYGASTRESGVPDRFTGSGSGTDFTLTISSVQAEDLAVYYCQNDHSYPFTFGSGTKLEIK
notes: also called HmAb1; anti-Cx43 hemichannel antibody

- IL1β-induced increase of Cx43 hemichannel opening (EtBr dye uptake) ([1]; antibody 2 μg/ml): abolished
- LPS-induced increase of Cx43 hemichannel opening (EtBr dye uptake) ([2]; antibody 2 μg/ml): abolished
B2: Cx43E2 blocking antibody: Cx43 hemichannel blocking antibody used in RAW264.7 and SW982 cells; headings and legends call it anti-Cx43 hemichannel antibody (M1 antibody) (antibody, V domains shown)
VH: B1 VH
VL: B1 VL
- LPS-induced up-regulation of MMP3/13, COX2, Adamts4 and IL6 gene expression [4]: markedly decreased
- MMP3/13, COX2, Adamts4/5 and NOS2 gene expression after IL1β treatment [5]: significantly reduced
